Source: PMC11560936
Where two headings read alike, the source gives them in different places.

Key:
Test in all cases: ITC
[1] = target: Penaeus monodon Rab7 wild type (PmRab7-WT) (Penaeus monodon) (UniProt Q00P14)
[2] = target: Penaeus monodon Rab7 wild type (PmRab7-WT) (Penaeus monodon) (UniProt Q00P14); remark: listed apart in the source
[3] = target: Penaeus monodon Rab7 wild type (PmRab7-WT) (Penaeus monodon) (UniProt Q00P14); remark: listed apart in the source
[4] = target: Penaeus monodon Rab7 wild type (PmRab7-WT) (Penaeus monodon) (UniProt Q00P14); remark: listed apart in the source
[5] = target: Penaeus monodon Rab7 Q67L mutant (PmRab7-Q67L) (Penaeus monodon) (UniProt Q00P14)
[6] = target: Penaeus monodon Rab7 T22N mutant (PmRab7-T22N) (Penaeus monodon) (UniProt Q00P14)
[7] = target: Penaeus monodon Rab7 L129F mutant (PmRab7-L129F) (Penaeus monodon) (UniProt Q00P14)
[8] = target: Penaeus monodon Rab7 wild type (PmRab7-WT) (Penaeus monodon) (UniProt Q00P14); remark: listed apart in the source

## White spot syndrome virus envelope protein VP28 with His6 tag (VP28-His6) (natural protein)
[1]
  Kd: 1920 nM
  dH: -20.2 kcal/mol
  stoichiometry N: 0.703 VP28:Rab7
[2]
  Kd: 924 nM
  dH: -15.4 kcal/mol
  stoichiometry N: 0.795 VP28:Rab7
[3]
  Kd: 352 nM
  dH: -7.23 kcal/mol
  stoichiometry N: 0.682 VP28:Rab7
[4]
  Kd: 826 nM
  dH: -17 kcal/mol
  stoichiometry N: 0.738 VP28:Rab7
[5]
  Kd: 1990 nM
  dH: -33 kcal/mol
  stoichiometry N: 0.582 VP28:Rab7
[6]
  Kd: 334 nM
  dH: -20 kcal/mol
  stoichiometry N: 0.625 VP28:Rab7
[7]
  Kd: 128 nM
  dH: -25.7 kcal/mol
  stoichiometry N: 0.519 VP28:Rab7
[8]
  Kd: 22.5 nM
  dH: -22.1 kcal/mol
  stoichiometry N: 0.543 VP28:Rab7
